Experimental data from publication PMC10602139, “Architecture and rearrangements of a sperm-specific Na^+/H^+ exchanger” (Research Square, 2023).

Experiments:
[1] = molecular target: the molecule itself; assay: SEC; FSEC of eGFP fusion constructs affinity purified in digitonin micelles; Superose 6 10/300, GFP fluorescence detected
[2] = molecular target: the molecule itself; assay: SEC; FSEC, thermal disassembly: protein diluted 200-fold into destabilizing buffer pH 6 without or with cAMP (up to 5 mM), heated 10 min to the desired temperature; ratio of monomer to dimer species (ρ) against temperature; dimer to monomers

B1: sp9C1 truncated at amino acid position 494, eGFP fusion (domain or fragment, Strongylocentrotus purpuratus, UniProt A3RL54 30-494, looked up)
chain: SSGGSGHTPTTQATHADDHDLTTHNGTEEHDDGHDDGHDDLHAHAPKVIVFISGSCLFGAISRSLFKKLPIPYTVVLLILGAILGVVASNVPLVEEHTRDVAHMDPHVLLQIFLPVLIFESAFAMDVHTFMRSFSQVCILALFGLVVASVLTAVLAMNLFNYNWNFSEAMMFGAIMSATDPVAVVALLKDLGASKQLGTIIEGESLLNDGCAIVIFNVFMKMVFFPQLTSTVGQNVLYFLQVAVAGPLWGYAVAKVTVFFLSHIFNDALVEITITLAATYLTYYIGDIWLEVSGVLAVVVLGLIVNAEKTSISPEVEVFLHRFWEMLAYLANTLIFMMVGVVVTQKALVAVDKMDWFYLIILYLAITIIRGMVISLFSPILSRIGYGLTWRNAVIMTWGGLRGAVGLALALVVENLAGNDVIGSKFLFHTAGIVVLTLVINATTIQTLLRILGMSDISIPKRLAM
notes: the ARD is deleted, the ion-exchange domain (ED) remains; source: HEK293F, transiently transfected; not shown: mEGFP, C-terminal, kept; Twinstrep, C-terminal, kept
stoichiometry N [1]: 2

B2: sp9C1 truncated at amino acid position 950, eGFP fusion (domain or fragment, Strongylocentrotus purpuratus, UniProt A3RL54 30-950, looked up)
chain: SSGGSGHTPTTQATHADDHDLTTHNGTEEHDDGHDDGHDDLHAHAPKVIVFISGSCLFGAISRSLFKKLPIPYTVVLLILGAILGVVASNVPLVEEHTRDVAHMDPHVLLQIFLPVLIFESAFAMDVHTFMRSFSQVCILALFGLVVASVLTAVLAMNLFNYNWNFSEAMMFGAIMSATDPVAVVALLKDLGASKQLGTIIEGESLLNDGCAIVIFNVFMKMVFFPQLTSTVGQNVLYFLQVAVAGPLWGYAVAKVTVFFLSHIFNDALVEITITLAATYLTYYIGDIWLEVSGVLAVVVLGLIVNAEKTSISPEVEVFLHRFWEMLAYLANTLIFMMVGVVVTQKALVAVDKMDWFYLIILYLAITIIRGMVISLFSPILSRIGYGLTWRNAVIMTWGGLRGAVGLALALVVENLAGNDVIGSKFLFHTAGIVVLTLVINATTIQTLLRILGMSDISIPKRLAMAGAVRRIHEGQNRTLNMLKSDRFLADADWDIATAACEISDPYSALSDDENAPADELTLGERKSVCPGCKAMVPNEPSPREFADMMEEARLRMLKAEKISYWKQFEHGMLAREALRLLVQHAEVAADEKDQFILVDDLKKSWQIKGIYPWLKRKLEDLISEKKIAAIPMPKYKLGKLMYKICHHMAFEVTINIAIVLNIVPIIMEFVVQDKMASVSTMAAPGSTVSSEPSSLQKIEDALRISNYVFFVIYAIEAIVKILGLGRHYIVSHWNKFDAFILVVALVDIIIAETLLKGSITINLSSIKVVKLFRLLRGLRMLRLTKALIPKLILVVNGKINNQLSLGYDVGKGYIIGEEEVGKIIDRMVDNKKILRELKHISETGRLQVVKELGLLQREHPGIAVSVKTRQAIRTILNHSRETIHELQGAGLLDEMEAHKLELTVEIKMKRLMNAPSSIPP
notes: SLC9C1, Strongylocentrotus purpuratus, truncated at amino acid position 950; the CNBD, βR2 and the C-terminal tail are deleted; also called 950 construct; source: HEK293F, transiently transfected; not shown: mEGFP, C-terminal, kept; Twinstrep, C-terminal, kept
stoichiometry N [1]: 2

B3: sp9C1 truncated at amino acid position 657, eGFP fusion (domain or fragment, Strongylocentrotus purpuratus, UniProt A3RL54 30-657, looked up)
chain: SSGGSGHTPTTQATHADDHDLTTHNGTEEHDDGHDDGHDDLHAHAPKVIVFISGSCLFGAISRSLFKKLPIPYTVVLLILGAILGVVASNVPLVEEHTRDVAHMDPHVLLQIFLPVLIFESAFAMDVHTFMRSFSQVCILALFGLVVASVLTAVLAMNLFNYNWNFSEAMMFGAIMSATDPVAVVALLKDLGASKQLGTIIEGESLLNDGCAIVIFNVFMKMVFFPQLTSTVGQNVLYFLQVAVAGPLWGYAVAKVTVFFLSHIFNDALVEITITLAATYLTYYIGDIWLEVSGVLAVVVLGLIVNAEKTSISPEVEVFLHRFWEMLAYLANTLIFMMVGVVVTQKALVAVDKMDWFYLIILYLAITIIRGMVISLFSPILSRIGYGLTWRNAVIMTWGGLRGAVGLALALVVENLAGNDVIGSKFLFHTAGIVVLTLVINATTIQTLLRILGMSDISIPKRLAMAGAVRRIHEGQNRTLNMLKSDRFLADADWDIATAACEISDPYSALSDDENAPADELTLGERKSVCPGCKAMVPNEPSPREFADMMEEARLRMLKAEKISYWKQFEHGMLAREALRLLVQHAEVAADEKDQFILVDDLKKSWQIKGIYPWLKRKLEDLISEKKI
notes: the ARD is partly deleted; source: HEK293F, transiently transfected; not shown: mEGFP, C-terminal, kept; Twinstrep, C-terminal, kept
stoichiometry N [1]: 2

B4: sp9C1-eGFP, full length (FSEC sample) (natural protein, Strongylocentrotus purpuratus, UniProt A3RL54 30-1325, looked up)
chain: SSGGSGHTPTTQATHADDHDLTTHNGTEEHDDGHDDGHDDLHAHAPKVIVFISGSCLFGAISRSLFKKLPIPYTVVLLILGAILGVVASNVPLVEEHTRDVAHMDPHVLLQIFLPVLIFESAFAMDVHTFMRSFSQVCILALFGLVVASVLTAVLAMNLFNYNWNFSEAMMFGAIMSATDPVAVVALLKDLGASKQLGTIIEGESLLNDGCAIVIFNVFMKMVFFPQLTSTVGQNVLYFLQVAVAGPLWGYAVAKVTVFFLSHIFNDALVEITITLAATYLTYYIGDIWLEVSGVLAVVVLGLIVNAEKTSISPEVEVFLHRFWEMLAYLANTLIFMMVGVVVTQKALVAVDKMDWFYLIILYLAITIIRGMVISLFSPILSRIGYGLTWRNAVIMTWGGLRGAVGLALALVVENLAGNDVIGSKFLFHTAGIVVLTLVINATTIQTLLRILGMSDISIPKRLAMAGAVRRIHEGQNRTLNMLKSDRFLADADWDIATAACEISDPYSALSDDENAPADELTLGERKSVCPGCKAMVPNEPSPREFADMMEEARLRMLKAEKISYWKQFEHGMLAREALRLLVQHAEVAADEKDQFILVDDLKKSWQIKGIYPWLKRKLEDLISEKKIAAIPMPKYKLGKLMYKICHHMAFEVTINIAIVLNIVPIIMEFVVQDKMASVSTMAAPGSTVSSEPSSLQKIEDALRISNYVFFVIYAIEAIVKILGLGRHYIVSHWNKFDAFILVVALVDIIIAETLLKGSITINLSSIKVVKLFRLLRGLRMLRLTKALIPKLILVVNGKINNQLSLGYDVGKGYIIGEEEVGKIIDRMVDNKKILRELKHISETGRLQVVKELGLLQREHPGIAVSVKTRQAIRTILNHSRETIHELQGAGLLDEMEAHKLELTVEIKMKRLMNAPSSIPPPPPENLLKNVSWLAGDMKLIDFIKARASLLHFDYGEVIVREGDESDGLFLIVSGLVKLYGKSAFLDHDNPPVTAGSEENEVFEDYLTVGNVIGEMGVLTKKPRNATVTCETTVQVYFITAEDMNIAIDTFTLYPSLEYRLWRVVAIRIATPLIMEQMAFQGWTQEKVKLHLERGYLVDLAESHFQFNIDATLEDVILINGTAYNAHTREEIRSPCLISRTVHKLTFQYTATEEPRLFVVRNAEYNGPILDGRLDVDSKRSLISITEISSNMCLKHAAELRQKNSKVMLSRKSSGAAAKEEEDCIPNTSDVEQAAGVSPSVPTKTTPKPKSFLPSLGLSMSKERVNGEAVEESPVKTKQGEETPETEEGAAPRVNV
notes: SLC9C1 (sperm-specific Na+/H+ exchanger), Strongylocentrotus purpuratus, full length; followed by a PreScission site and mEGFP-Twinstrep; A PreScission protease site lies between SLC9C1 and the mEGFP-Twinstrep tag; also called FL; FL-sp9C1; source: HEK293F, transiently transfected; not shown: mEGFP, C-terminal, kept; Twinstrep, C-terminal, kept
stoichiometry N [1]: 2
ρsat (saturating ratio of monomer to dimer species), 5 mM cAMP [2]: 2.4
ρsat (saturating ratio of monomer to dimer species), cAMP-free [2]: ~0.9

B5: sp9C1 Y1035C mutant, eGFP fusion (natural protein, Strongylocentrotus purpuratus, UniProt A3RL54 30-1325, looked up)
chain: SSGGSGHTPTTQATHADDHDLTTHNGTEEHDDGHDDGHDDLHAHAPKVIVFISGSCLFGAISRSLFKKLPIPYTVVLLILGAILGVVASNVPLVEEHTRDVAHMDPHVLLQIFLPVLIFESAFAMDVHTFMRSFSQVCILALFGLVVASVLTAVLAMNLFNYNWNFSEAMMFGAIMSATDPVAVVALLKDLGASKQLGTIIEGESLLNDGCAIVIFNVFMKMVFFPQLTSTVGQNVLYFLQVAVAGPLWGYAVAKVTVFFLSHIFNDALVEITITLAATYLTYYIGDIWLEVSGVLAVVVLGLIVNAEKTSISPEVEVFLHRFWEMLAYLANTLIFMMVGVVVTQKALVAVDKMDWFYLIILYLAITIIRGMVISLFSPILSRIGYGLTWRNAVIMTWGGLRGAVGLALALVVENLAGNDVIGSKFLFHTAGIVVLTLVINATTIQTLLRILGMSDISIPKRLAMAGAVRRIHEGQNRTLNMLKSDRFLADADWDIATAACEISDPYSALSDDENAPADELTLGERKSVCPGCKAMVPNEPSPREFADMMEEARLRMLKAEKISYWKQFEHGMLAREALRLLVQHAEVAADEKDQFILVDDLKKSWQIKGIYPWLKRKLEDLISEKKIAAIPMPKYKLGKLMYKICHHMAFEVTINIAIVLNIVPIIMEFVVQDKMASVSTMAAPGSTVSSEPSSLQKIEDALRISNYVFFVIYAIEAIVKILGLGRHYIVSHWNKFDAFILVVALVDIIIAETLLKGSITINLSSIKVVKLFRLLRGLRMLRLTKALIPKLILVVNGKINNQLSLGYDVGKGYIIGEEEVGKIIDRMVDNKKILRELKHISETGRLQVVKELGLLQREHPGIAVSVKTRQAIRTILNHSRETIHELQGAGLLDEMEAHKLELTVEIKMKRLMNAPSSIPPPPPENLLKNVSWLAGDMKLIDFIKARASLLHFDYGEVIVREGDESDGLFLIVSGLVKLYGKSAFLDHDNPPVTAGSEENEVFEDCLTVGNVIGEMGVLTKKPRNATVTCETTVQVYFITAEDMNIAIDTFTLYPSLEYRLWRVVAIRIATPLIMEQMAFQGWTQEKVKLHLERGYLVDLAESHFQFNIDATLEDVILINGTAYNAHTREEIRSPCLISRTVHKLTFQYTATEEPRLFVVRNAEYNGPILDGRLDVDSKRSLISITEISSNMCLKHAAELRQKNSKVMLSRKSSGAAAKEEEDCIPNTSDVEQAAGVSPSVPTKTTPKPKSFLPSLGLSMSKERVNGEAVEESPVKTKQGEETPETEEGAAPRVNV
notes: SLC9C1, Strongylocentrotus purpuratus, with Y1035C; source: HEK293F, transiently transfected; not shown: mEGFP, C-terminal, kept; Twinstrep, C-terminal, kept
binding result [2]: binds

B6: sp9C1 K880A mutant, eGFP fusion (natural protein, Strongylocentrotus purpuratus, UniProt A3RL54 30-1325, looked up)
chain: SSGGSGHTPTTQATHADDHDLTTHNGTEEHDDGHDDGHDDLHAHAPKVIVFISGSCLFGAISRSLFKKLPIPYTVVLLILGAILGVVASNVPLVEEHTRDVAHMDPHVLLQIFLPVLIFESAFAMDVHTFMRSFSQVCILALFGLVVASVLTAVLAMNLFNYNWNFSEAMMFGAIMSATDPVAVVALLKDLGASKQLGTIIEGESLLNDGCAIVIFNVFMKMVFFPQLTSTVGQNVLYFLQVAVAGPLWGYAVAKVTVFFLSHIFNDALVEITITLAATYLTYYIGDIWLEVSGVLAVVVLGLIVNAEKTSISPEVEVFLHRFWEMLAYLANTLIFMMVGVVVTQKALVAVDKMDWFYLIILYLAITIIRGMVISLFSPILSRIGYGLTWRNAVIMTWGGLRGAVGLALALVVENLAGNDVIGSKFLFHTAGIVVLTLVINATTIQTLLRILGMSDISIPKRLAMAGAVRRIHEGQNRTLNMLKSDRFLADADWDIATAACEISDPYSALSDDENAPADELTLGERKSVCPGCKAMVPNEPSPREFADMMEEARLRMLKAEKISYWKQFEHGMLAREALRLLVQHAEVAADEKDQFILVDDLKKSWQIKGIYPWLKRKLEDLISEKKIAAIPMPKYKLGKLMYKICHHMAFEVTINIAIVLNIVPIIMEFVVQDKMASVSTMAAPGSTVSSEPSSLQKIEDALRISNYVFFVIYAIEAIVKILGLGRHYIVSHWNKFDAFILVVALVDIIIAETLLKGSITINLSSIKVVKLFRLLRGLRMLRLTKALIPKLILVVNGKINNQLSLGYDVGKGYIIGEEEVGKIIDRMVDNKKILRELKHISETGRLQVVAELGLLQREHPGIAVSVKTRQAIRTILNHSRETIHELQGAGLLDEMEAHKLELTVEIKMKRLMNAPSSIPPPPPENLLKNVSWLAGDMKLIDFIKARASLLHFDYGEVIVREGDESDGLFLIVSGLVKLYGKSAFLDHDNPPVTAGSEENEVFEDYLTVGNVIGEMGVLTKKPRNATVTCETTVQVYFITAEDMNIAIDTFTLYPSLEYRLWRVVAIRIATPLIMEQMAFQGWTQEKVKLHLERGYLVDLAESHFQFNIDATLEDVILINGTAYNAHTREEIRSPCLISRTVHKLTFQYTATEEPRLFVVRNAEYNGPILDGRLDVDSKRSLISITEISSNMCLKHAAELRQKNSKVMLSRKSSGAAAKEEEDCIPNTSDVEQAAGVSPSVPTKTTPKPKSFLPSLGLSMSKERVNGEAVEESPVKTKQGEETPETEEGAAPRVNV
notes: SLC9C1, Strongylocentrotus purpuratus, with K880A; also called R880A (as printed once); source: HEK293F, transiently transfected; not shown: mEGFP, C-terminal, kept; Twinstrep, C-terminal, kept
binding result [2]: binds
